# The RNAGym collection of RNA variant scans (doi:10.1073/pnas.2313332121)
# Fewer inactive variants are shown than the library holds.
# B1: TPR 5TU (parent)
# chain: GGAUCUUCUCGAUCUAACAAAAAAGACAAAUCUGCCACAAAGCUUGAGAGCAUCUUCGGAUGCAGAGGCGGCAGCCUUCGGUGGCGCGAUAGCGCCAACGUUCUCAACUAUGACACGCAAAACGCGUGCUCCGUUGAAUGGAGUUUAUCAUG
# Variants of: B1
# Assay: polymerase ribozyme fitness, log enrichment relative to wild type (log ratio); higher = more active; in vitro selection for triplet polymerase activity
# Method in brief: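 Streptavidin-bead capture of gel-excised extended constructs, followed by RT-PCR, closed a single triplicate in vitro selection round. That round began by annealing PCR-built, transcribed mutant libraries of each subunit of a heterodimeric triplet polymerase ribozyme with a biotinylated primer, the partner subunit and triplets, then incubating them frozen at −7 °C. After Illumina sequencing of inputs and outputs, genotypes needed ≥10 input reads and ≥1 read per output. Fitness is the base-2 logarithm of genotype enrichment over wild-type enrichment, using inverse-variance-weighted replicate averages.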
row,Variant,polymerase ribozyme fitness (log ratio)
1,C57A G74U C85A U130G,≤ -4.2
2,G58A A97U A107U,-4.18
3,C57A G62C C76U A91U C108U G140U U144G C149G,≤ -4.2
4,C57G A91G G100A C123A C131A,≤ -4.2
5,C57G G68U G94U C116G,≤ -4.2
6,G58A A89U C96A A115G,-1.15
7,U56G U135G,-3.68
8,U56G U135A,-1.84
9,C57U C95U C103G,-1.87
10,C57U G128U,-3.2
11,C57A A89U A98G,0.118
12,C57G A120U U144A,-1.24
13,C57G G65A U134C,-1.35
14,C57U C116G,0.474
15,U56C C85A C131G,-3.7
16,C57G G58A A91G,-3.24
17,C57A A60G G74U,-4.12
18,C57A C76G A113G G126A C129A U134G,≤ -4.2
19,U56A G88U C114A,≤ -4.2
20,C57U G58U,0.297
21,C57U C85G,-2.48
22,C57A G59C U146C U148A C149U,-3.99
23,U56A G92A,-2.28
24,U56A G92C,-1.7

row,Variant,polymerase ribozyme fitness (log ratio)
1,U56G G68U,≤ -4.2
2,C57A A60G C79G,-3.6
3,C57U G59A C85U C95G,-2.02
4,C57A G59C G84U A107G A115U A137G C149U,≤ -4.2
5,G58A A66C G74C C131G G136U,≤ -4.2
6,C57G C95U,-1.18
7,U56A G136A,-0.463
8,C57G G71A C96A U146A,-4.05
9,C57A U82A A121U G133C,-0.916
10,U56A G88C A142U,≤ -4.2
11,C57G C96A U139G,-0.754
12,C57A A73G C125A,-0.303
13,C57U C87U C116U C118U A119C G136A,0.419
14,U56G G84A,-3.48
15,U56C G68U A121G U148A,≤ -4.2
16,U56A G92U U102A U134C,-1.59
17,C57G G67U G92C A106C,≤ -4.2
18,C57G G68A G84U G126C U135G U144A,≤ -4.2
19,C57A C93U,-1.11
20,C57A C93G,-3.05
21,U56A U144A,-0.302
22,C57G A60C,-2.4
23,C57A G58A,1.15
24,C57A G58U,0.207

row,Variant,polymerase ribozyme fitness (log ratio)
1,C57U C76A C93U C116A U151G,≤ -4.2
2,C57A U104G A120U,-0.824
3,C57U C75U A107U U127C A150G,≤ -4.2
4,U56A U101A,-0.244
5,C57A A89C G94U A142G,-3.19
6,U56G A60G C99U U102A,-2.07
7,C57G C85U,-1.28
8,C57U C87U C103G,-1.94
9,C57U C79G,-3.67
10,C57U G84A A98U C129U A147U,-1.13
11,C57U A97G,-0.11
12,C57U C105G,-0.3
13,C57U C105A,-0.73
14,C57A C95U C149U,-0.536
15,C57U G126C,0.553
16,C57U G59A G67C G94C,≤ -4.2
17,U56G G68U G81A G84A A91C U135C,≤ -4.2
18,C57G G58C A137C,-3.85
19,U56A U61A C96U U101A,-1.95
20,C57U C95A G112U U151A,-4.06
21,U56A G88U U104C G124U,≤ -4.2
22,U56C C108U,-4.01
23,C57G G67C,-4.16
24,C57U G83U A137G,-1.92

row,Variant,polymerase ribozyme fitness (log ratio)
1,C57A A64C C85A C95U U130A A147U,≤ -4.2
2,U56G C79U U90A A107U C114G,≤ -4.2
3,U56C C95A U102A,-1.87
4,C57A G84U,-1.29
5,U56C G143U,-2.95
6,U56A U61C,-3.45
7,C57U U130G C131U,-4.19
8,U56G C116G,-0.0028
9,C57A C87U C103G,-2.01
10,C57A U127A,-3.56
11,C57A G92U,-0.638
12,U56C G62U C87U,-0.567
13,U56G C57A G81A A107C G117A,≤ -4.2
14,C57G G59U A64C C103G C116G A137C,≤ -4.2
15,C57U A66C G92U C93A,≤ -4.2
16,U56A G128C,-2.8
17,C57G,-0.448
18,C57U,-0.0371
19,C57A,-0.00233
20,C57G U82A A98G,-3.69
21,C57G G65C G84A U139A G140U,≤ -4.2
22,C57G C116A,1.35
23,U56A G117A,-0.176
24,U56A G117C,-0.369

row,Variant,polymerase ribozyme fitness (log ratio)
1,C57U U127C,-2.13
2,C57U C95G U127C U139G A142G,-4.04
3,U56G C103A A122U U146A,-2.78
4,C57A C72U A150U,-0.157
5,C57U G59A G83C G84U C85A U101G G126A A142C,≤ -4.2
6,U56G C87A C103U C114U C125U,≤ -4.2
7,G58A A64U G74A C79A U90C C96A C149A,≤ -4.2
8,C57U C85U G143A,-0.317
9,U56A G152U,-2.37
10,U56A G152A,-2.52
11,G58A A60C C63A U82G G88C C95A A113G A147G,≤ -4.2
12,U56G A73G C87A G94U C118U,≤ -4.2
13,C57U G94C C116U,0.445
14,C57U U78A G80A A138G U139G,≤ -4.2
15,U56G G70U C85U U151A,≤ -4.2
16,C57A C85G,-1.75
17,C57A C85U,-0.0999
18,C57A C85A,-1.28
19,C57U C75U,0.237
20,C57U C75G,-3.63
21,C57G G143C,-1.72
22,C57G A91G,-4.08
23,U56C C87U,-1.06
24,U56G U78G C79U G86A C87G C95A A115U G152C,≤ -4.2

row,Variant,polymerase ribozyme fitness (log ratio)
1,U56G G68C C85A C114A,≤ -4.2
2,C57G G88A C96U U139C A142G,≤ -4.2
3,C57A G100C,≤ -4.2
4,U56A U134A G143C,-4.04
5,C57G G80A G84A,-0.169
6,C57U A91U U102G G152U,-3.9
7,C57U C69G G84A C85G,≤ -4.2
8,U56A U61G A91C U127C U148C A150U,≤ -4.2
9,C57A G83C G141A,-0.777
10,C57U C85A G100U A138G,≤ -4.2
11,C57A G70U C96U,-2.27
12,C57G C96A,-0.472
13,U56C U109A,-1.87
14,C57A U135C,-1.62
15,C57U U61G G86A A89U,-3.74
16,C57G C123U U145A,-0.237
17,U56C U109A U127C,-3.65
18,C57U A142C,-0.377
19,C57A G136A,0.714
20,C57A C96U G124A A150C,-3.99
21,C57U U135G,-4.05
22,C57A C87A C116G U127A C129U A137G C149U,≤ -4.2
23,C57U G84C C95A C116G G136U A138C,-4.17
24,C57A U102G,-1.73

row,Variant,polymerase ribozyme fitness (log ratio)
1,U56G C114U,-1.85
2,C57A U78G A97G G117A A122G,≤ -4.2
3,C57U A97G G128C G141C,-3.99
4,C57A G124U,-0.787
5,U56G G100U U134A U146A U148A,≤ -4.2
6,C57U U151A,-4.18
7,C57A A91G,-2.76
8,C57G A89U A98U,-1.18
9,C57U G94U C118U G143U,≤ -4.2
10,C57G C75U C108A A110G,≤ -4.2
11,C57G A89G C93A,≤ -4.2
12,C57U C87G,≤ -4.2
13,C57G C76A C95U C129G A137C U144G,≤ -4.2
14,U56A U104G A115C A142C,≤ -4.2
15,C57A G80C A137C G143U,≤ -4.2
16,C57U G84A,-0.782
17,C57U G83C,-0.999
18,U56G C63A A120G,-0.244
19,C57A C85U A106U C125G G136U U146G,-3.77
20,C57G G83U,-0.732
21,C57G G83A,-1.02
22,C57A G86A U146G,-1.4
23,U56C C75A G88C C99G,≤ -4.2
